For 6 substances, stoichiometry N results are on record in paper PMC5587609.

Assay [1] addresses TRPV6* (rat TRPV6 residues 1–668 with I62Y, L92N and M96Q; L495Q reverted to the native leucine) (rat) (UniProt Q9R186). The experiment in a line: crystal structure; hanging drop, 20–24% PEG 350 MME, 50 mM NaCl, 50 mM Tris-HCl pH 8.0–8.5, 20 °C; also with 10 mM CaCl2 or 1 mM GdCl3; homotetramer.
Assay [2] shares this target. In words: SEC; FSEC traces of purified protein following tryptophan fluorescence; elution time corresponding to the tetrameric assembly. Background: In gel filtration, larger molecules generally elute earlier.
Assay [3] has as its target TRPV6*-del1 (TRPV6* with four residues, 477–480, deleted in the S4–S5 linker) (rat) (UniProt Q9R186). The assay is described as above.
Assay [4] addresses TRPV6*-del2 (TRPV6* with six residues, 475–480, deleted in the S4–S5 linker) (rat) (UniProt Q9R186). The assay is described as above.
In assay [5] the target is TRPV6*-del3 (TRPV6* with eight residues, 473–480, deleted in the S4–S5 linker) (rat) (UniProt Q9R186). The description is as above.
The target of assay [6] is TRPV6*-del4 (TRPV6* with ten residues, 471–480, deleted in the S4–S5 linker) (rat) (UniProt Q9R186). The assay is described as above.
Assay [7] concerns the target TRPV6_(cryst) (rat TRPV6 residues 1–668 with I62Y, L92N, M96Q and L495Q) (rat) (UniProt Q9R186). In words: crystal structure; hanging drop, 20–24% PEG 350 MME, 50 mM NaCl, 50 mM Tris-HCl pH 8.0–8.5, 20 °C; also with 10 mM CaCl2 or 1 mM GdCl3; homotetramer.

For “TRPV6* (rat TRPV6 residues 1–668 with I62Y, L92N and M96Q; L495Q reverted to the native leucine) (from UniProt Q9R186 1-668)”, the stoichiometry N in assay [1] and in assay [2] was 4 throughout.

Turning to “TRPV6*-del1 (TRPV6* with four residues, 477–480, deleted in the S4–S5 linker) (from UniProt Q9R186 1-668)”, in assay [3], the stoichiometry N is 4. In turn, “TRPV6*-del2 (TRPV6* with six residues, 475–480, deleted in the S4–S5 linker) (from UniProt Q9R186 1-668)” yielded a stoichiometry N in assay [4] of 4. Consider “TRPV6*-del3 (TRPV6* with eight residues, 473–480, deleted in the S4–S5 linker) (from UniProt Q9R186 1-668)”, for which the stoichiometry N in assay [5] worked out at 4. Turning to “TRPV6*-del4 (TRPV6* with ten residues, 471–480, deleted in the S4–S5 linker) (from UniProt Q9R186 1-668)”, the stoichiometry N in assay [6] stood at 4. With “TRPV6_(cryst) (rat TRPV6 residues 1–668 with I62Y, L92N, M96Q and L495Q) (from UniProt Q9R186 1-668)”, in assay [7], the stoichiometry N worked out at 4.

By stoichiometry N is commonly meant a count of units in the complex or per binding partner.
